Measurements published in the supplement of paper PMC10567573.

B1: FBXO33 (parent)
chain: RLRGLLRVLRGRPGAGSRRRGRMA
B2: TOR1AIP2 (parent)
chain: SPGHSSAGQEGEDTLRRRLLAPEA

Variants of: B1
Assay: protein stability index of a GFP-peptide fusion (GPS, HEK-293T) (PSI 1-6); higher = more stable
Conditions: c terminus: a fixed tail appended
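Further: lentivirally expressed fusions sorted by FACS into six bins by GFP to DsRed ratio, PSI derived from sequencing read proportions per bin multiplied by bin number.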

| Variant | protein stability index |
| --- | --- |
| CLRGLLRVLRGRPGAGSRRRGRMA [R1C] | 1.2 |
| LLRGLLRVLRGRPGAGSRRRGRMA [R1L] | 1.59 |
| GLRGLLRVLRGRPGAGSRRRGRMA [R1G] | 1.84 |
| NLRGLLRVLRGRPGAGSRRRGRMA [R1N] | 2.01 |
| ALRGLLRVLRGRPGAGSRRRGRMA [R1A] | 1.7 |
| DLRGLLRVLRGRPGAGSRRRGRMA [R1D] | 2.92 |
| FLRGLLRVLRGRPGAGSRRRGRMA [R1F] | 1.53 |

Variants of: B2
Assay: as above
Conditions: c terminus: a fixed tail appended

| Variant | protein stability index |
| --- | --- |
| SPGHSSAGQEGEDTLLRRLLAPEA [R16L] | 4.61 |
| SPGHSSAGQEGEDTLSRRLLAPEA [R16S] | 5.63 |
| SPGHSSAGQEGEDTLKRRLLAPEA [R16K] | 4.79 |
| SPGHSSAGQEGEDTLARRLLAPEA [R16A] | 5.37 |
| SPGHSSAGQEGEDTLWRRLLAPEA [R16W] | 3.52 |
| SPGHSSAGQEGEDTLYRRLLAPEA [R16Y] | 4.44 |
| SPGHSSAGQEGEDTLVRRLLAPEA [R16V] | 5.51 |
| SPGHSSAGQEGEDTLHRRLLAPEA [R16H] | 5.38 |
| SPGHSSAGQEGEDTLTRRLLAPEA [R16T] | 5.04 |
| SPGHSSAGQEGEDTLNRRLLAPEA [R16N] | 5.23 |
| SPGHSSAGQEGEDTLDRRLLAPEA [R16D] | 5.68 |
| SPGHSSAGQEGEDTLIRRLLAPEA [R16I] | 5.06 |
| SPGHSSAGQEGEDTLFRRLLAPEA [R16F] | 4.71 |
| SPGHSSAGQEGEDTLMRRLLAPEA [R16M] | 4.6 |
| SPGHSSAGQEGEDTLPRRLLAPEA [R16P] | 4.9 |
| SPGHSSAGQEGEDTLCRRLLAPEA [R16C] | 5.14 |
| SPGHSSAGQEGEDTLGRRLLAPEA [R16G] | 5.41 |
| SPGHSSAGQEGEDTLQRRLLAPEA [R16Q] | 5.34 |
| SPGHSSAGQEGEDTLERRLLAPEA [R16E] | 5.46 |
| SPGHSSAGQEGEDTLRRMLLAPEA [R18M] | 3.29 |
| SPGHSSAGQEGEDTLRRYLLAPEA [R18Y] | 2.94 |
| SPGHSSAGQEGEDTLRRWLLAPEA [R18W] | 2.51 |

| Variant | protein stability index |
| --- | --- |
| SPGHSSAGQEGEDTLRRLLLAPEA [R18L] | 2.99 |
| SPGHSSAGQEGEDTLRRELLAPEA [R18E] | 5.45 |
| SPGHSSAGQEGEDTLRRTLLAPEA [R18T] | 4.58 |
| SPGHSSAGQEGEDTLRRFLLAPEA [R18F] | 2.84 |
| SPGHSSAGQEGEDTLRRILLAPEA [R18I] | 3.07 |
| SPGHSSAGQEGEDTLRRALLAPEA [R18A] | 4.8 |
| SPGHSSAGQEGEDTLRRVLLAPEA [R18V] | 4.14 |
| SPGHSSAGQEGEDTLRRGLLAPEA [R18G] | 5.1 |
| SPGHSSAGQEGEDTLRRCLLAPEA [R18C] | 4.4 |
| SPGHSSAGQEGEDTLRRKLLAPEA [R18K] | 4.83 |
| SPGHSSAGQEGEDTLRRNLLAPEA [R18N] | 4.98 |
| SPGHSSAGQEGEDTLRRHLLAPEA [R18H] | 4.6 |
| SPGHSSAGQEGEDTLRRDLLAPEA [R18D] | 4.89 |
| SPGHSSAGQEGEDTLRRSLLAPEA [R18S] | 5.01 |
| SPGHSSAGQEGEDTLRRQLLAPEA [R18Q] | 3.89 |
| SPGHSSAGQEGEDTLRRPLLAPEA [R18P] | 5.5 |
| SPGHSSAGQEGEDTLRRRLRAPEA [L20R] | 5.26 |
| SPGHSSAGQEGEDTLRRRLNAPEA [L20N] | 5.25 |
| SPGHSSAGQEGEDTLRRRLPAPEA [L20P] | 5.15 |
| SPGHSSAGQEGEDTLRRRLTAPEA [L20T] | 5.33 |
| SPGHSSAGQEGEDTLRRRLMAPEA [L20M] | 5.01 |
| SPGHSSAGQEGEDTLRRRLQAPEA [L20Q] | 5.63 |

| Variant | protein stability index |
| --- | --- |
| SPGHSSAGQEGEDTLRRRLHAPEA [L20H] | 5.29 |
| SPGHSSAGQEGEDTLRRRLAAPEA [L20A] | 5.64 |
| SPGHSSAGQEGEDTLRRRLYAPEA [L20Y] | 4.51 |
| SPGHSSAGQEGEDTLRRRLFAPEA [L20F] | 3.94 |
| SPGHSSAGQEGEDTLRRRLIAPEA [L20I] | 4.94 |
| SPGHSSAGQEGEDTLRRRLEAPEA [L20E] | 4.9 |
| SPGHSSAGQEGEDTLRRRLKAPEA [L20K] | 5.38 |
| SPGHSSAGQEGEDTLRRRLCAPEA [L20C] | 5.49 |
| SPGHSSAGQEGEDTLRRRLSAPEA [L20S] | 4.95 |
| SPGHSSAGQEGEDTLRRRLDAPEA [L20D] | 4.7 |
| SPGHSSAGQEGEDTLRRRLGAPEA [L20G] | 5.54 |
| SPGHSSAGQEGEDTLRRRLWAPEA [L20W] | 4.73 |
| SPGHSSAGQEGEDTLRRRLVAPEA [L20V] | 5.21 |
| SPGHSSAGQEGEDTLRRRLLAPDA [E23D] | 4.15 |
| SPGHSSAGQEGEDTLRRRLLAPWA [E23W] | 3.98 |
| SPGHSSAGQEGEDTLRRRLLAPPA [E23P] | 5.13 |
| SPGHSSAGQEGEDTLRRRLLAPAA [E23A] | 4.71 |
| SPGHSSAGQEGEDTLRRRLLAPFA [E23F] | 3.78 |
| SPGHSSAGQEGEDTLRRRLLAPSA [E23S] | 4.46 |
| SPGHSSAGQEGEDTLRRRLLAPTA [E23T] | 4.53 |
| SPGHSSAGQEGEDTLRRRLLAPQA [E23Q] | 4.59 |
| SPGHSSAGQEGEDTLRRRLLAPCA [E23C] | 4.42 |

| Variant | protein stability index |
| --- | --- |
| SPGHSSAGQEGEDTLRRRLLAPIA [E23I] | 4.1 |
| SPGHSSAGQEGEDTLRRRLLAPVA [E23V] | 4.38 |
| SPGHSSAGQEGEDTLRRRLLAPMA [E23M] | 4.47 |
| SPGHSSAGQEGEDTLRRRLLAPLA [E23L] | 3.87 |
| SPGHSSAGQEGEDTLRRRLLAPGA [E23G] | 4.67 |
| SPGHSSAGQEGEDTLRRRLLAPKA [E23K] | 4.95 |
| SPGHSSAGQEGEDTLRRRLLAPNA [E23N] | 4.46 |
| SPGHSSAGQEGEDTLRRRLLAPHA [E23H] | 4.09 |
| SPGHSSAGQEGEDTLRRRLLAPYA [E23Y] | 3.59 |
| SPGHSSAGQEGEDTLRRRLLAPRA [E23R] | 4.77 |
| SPGHSSAGQEGEDTNRRRLLAPEA [L15N] | 5.49 |
| SPGHSSAGQEGEDTVRRRLLAPEA [L15V] | 4.93 |
| SPGHSSAGQEGEDTWRRRLLAPEA [L15W] | 3.92 |
| SPGHSSAGQEGEDTRRRRLLAPEA [L15R] | 5.01 |
| SPGHSSAGQEGEDTTRRRLLAPEA [L15T] | 5.31 |
| SPGHSSAGQEGEDTYRRRLLAPEA [L15Y] | 4.89 |
| SPGHSSAGQEGEDTQRRRLLAPEA [L15Q] | 4.98 |
| SPGHSSAGQEGEDTPRRRLLAPEA [L15P] | 5.23 |
| SPGHSSAGQEGEDTSRRRLLAPEA [L15S] | 5.16 |
| SPGHSSAGQEGEDTMRRRLLAPEA [L15M] | 4.79 |
| SPGHSSAGQEGEDTLRRRLLAPEP [A24P] | 4.94 |
